In experiment [1] the target is extracellular domain of CD47 fused to a His(×6)-Avi-tag. Briefly: ELISA. The settings on record: chain shown with the change, read off a plot.
Experiment [2] has as its target extracellular domain of CD47 fused to a His(×6)-Avi-tag (human). Put plainly: ELISA; CD47-ECD coated on plates; serially diluted IgGs, detected with anti-human IgG Fc-HRP; pH 6.8 (of a series from pH 6.2 to 7.6).
For experiment [3] the target is unchanged. Briefly: ELISA; CD47-ECD coated on plates; serially diluted IgGs, detected with anti-human IgG Fc-HRP; pH 7.6 (of a series from pH 6.2 to 7.6).

extracellular domain of CD47 fused to a His(×6)-Avi-tag, sequence (chain, as listed by the source): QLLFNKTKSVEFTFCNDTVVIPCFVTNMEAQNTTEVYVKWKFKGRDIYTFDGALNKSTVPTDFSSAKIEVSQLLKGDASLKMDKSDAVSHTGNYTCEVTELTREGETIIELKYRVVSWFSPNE

B1: BC31M4 (hIgG1 form) L:H38R; L:H107R (protein)
chain 1: QVQLVQSGAEVKKPGASVKVSCKASGYTFTSYGISWVRQAPGQGLEWMGWISAYNGNTNYAQKLQGRVTMTTDTSTSTAYMELRSLRSDDTAVYYCARGAVYFDYWGQGTLVTVSS
chain 2: EIVLTQSPATLSLSPGERATLSCRASQSLSRNRLAWYQQKPGQPPRLLIHWASTRESGVPDRFSGSGSGTDFTLTISSLQAEDVAVYYCQQRTQNTWTFGQGTKVEIK
B1: the EC50 in experiment [1] (pH 6.8, parent: est. -1.3) is 1.4 log10(nM); in experiment [1] (pH 7.4, parent: est. -0.1) it was 1.9 log10(nM).

B2: BC31M4 (hIgG1 form) L:H38R; L:H55R; L:H107R (protein)
chain 1: QVQLVQSGAEVKKPGASVKVSCKASGYTFTSYGISWVRQAPGQGLEWMGWISAYNGNTNYAQKLQGRVTMTTDTSTSTAYMELRSLRSDDTAVYYCARGAVYFDYWGQGTLVTVSS
chain 2: EIVLTQSPATLSLSPGERATLSCRASQSLSRNRLAWYQQKPGQPPRLLIRWASTRESGVPDRFSGSGSGTDFTLTISSLQAEDVAVYYCQQRTQNTWTFGQGTKVEIK
Consider B2, for which, in experiment [1] (pH 6.8, highest antibody concentration, Log[Ab] (nM) about 3.5), the response is 2 OD450.

B3: BC31M4 (hIgG1 form) (antibody, V domains shown)
VH: QVQLVQSGAEVKKPGASVKVSCKASGYTFTSYGISWVRQAPGQGLEWMGWISAYNGNTNYAQKLQGRVTMTTDTSTSTAYMELRSLRSDDTAVYYCARGAVYFDYWGQGTLVTVSS
VL: EIVLTQSPATLSLSPGERATLSCRASQSLSRNHLAWYQQKPGQPPRLLIHWASTRESGVPDRFSGSGSGTDFTLTISSLQAEDVAVYYCQQHTQNTWTFGQGTKVEIK
Consider B3, for which the EC50 in experiment [2] is 0.03 nM; in experiment [3], 2.12 nM.

B4: BC31M4 (hIgG1 form) L:H38R; L:H55R (protein)
chain 1: QVQLVQSGAEVKKPGASVKVSCKASGYTFTSYGISWVRQAPGQGLEWMGWISAYNGNTNYAQKLQGRVTMTTDTSTSTAYMELRSLRSDDTAVYYCARGAVYFDYWGQGTLVTVSS
chain 2: EIVLTQSPATLSLSPGERATLSCRASQSLSRNRLAWYQQKPGQPPRLLIRWASTRESGVPDRFSGSGSGTDFTLTISSLQAEDVAVYYCQQHTQNTWTFGQGTKVEIK
In the case of B4, the EC50 in experiment [1] (pH 6.8, parent: est. -1.3) is -0.9 log10(nM); in experiment [1] (pH 7.4, parent: est. -0.1) it was -0.1 log10(nM).

B5: BC31M4 (hIgG1 form) L:H55R; L:H107R (protein)
chain 1: QVQLVQSGAEVKKPGASVKVSCKASGYTFTSYGISWVRQAPGQGLEWMGWISAYNGNTNYAQKLQGRVTMTTDTSTSTAYMELRSLRSDDTAVYYCARGAVYFDYWGQGTLVTVSS
chain 2: EIVLTQSPATLSLSPGERATLSCRASQSLSRNHLAWYQQKPGQPPRLLIRWASTRESGVPDRFSGSGSGTDFTLTISSLQAEDVAVYYCQQRTQNTWTFGQGTKVEIK
In the case of B5, the EC50 in experiment [1] (pH 6.8, parent: est. -1.3) is 0.4 log10(nM); in experiment [1] (pH 7.4, parent: est. -0.1) it was 1.3 log10(nM).

Source of the values: publication PMC9844003.
